Numbering of substitutions follows the chain as printed. Names may count otherwise.

Conditions in all cases: both partners purified
In test [1] the target is T1, human VPS34 complex I (VPS34/VPS15/Beclin 1/ATG14L) (human, UniProt Q8NEB9 1-887; Q99570 1-1358; Q14457 1-450; Q6ZNE5 1-492).
T1 construct: VPS34, human, subunit of complex I; VPS15, human, subunit of complex I; Beclin 1, human, subunit of complex I; ATG14L, human, subunit of complex I; Heterotetramer; Purified on IgG beads and released with TEV protease; also called autophagy-specific complex I; source: Expi293F, transfected, purified (IgG beads, TEV protease elution, S200 gel filtration); copies: + + +
T1 sequence (Q8NEB9 whole entry, chain 1 of 4): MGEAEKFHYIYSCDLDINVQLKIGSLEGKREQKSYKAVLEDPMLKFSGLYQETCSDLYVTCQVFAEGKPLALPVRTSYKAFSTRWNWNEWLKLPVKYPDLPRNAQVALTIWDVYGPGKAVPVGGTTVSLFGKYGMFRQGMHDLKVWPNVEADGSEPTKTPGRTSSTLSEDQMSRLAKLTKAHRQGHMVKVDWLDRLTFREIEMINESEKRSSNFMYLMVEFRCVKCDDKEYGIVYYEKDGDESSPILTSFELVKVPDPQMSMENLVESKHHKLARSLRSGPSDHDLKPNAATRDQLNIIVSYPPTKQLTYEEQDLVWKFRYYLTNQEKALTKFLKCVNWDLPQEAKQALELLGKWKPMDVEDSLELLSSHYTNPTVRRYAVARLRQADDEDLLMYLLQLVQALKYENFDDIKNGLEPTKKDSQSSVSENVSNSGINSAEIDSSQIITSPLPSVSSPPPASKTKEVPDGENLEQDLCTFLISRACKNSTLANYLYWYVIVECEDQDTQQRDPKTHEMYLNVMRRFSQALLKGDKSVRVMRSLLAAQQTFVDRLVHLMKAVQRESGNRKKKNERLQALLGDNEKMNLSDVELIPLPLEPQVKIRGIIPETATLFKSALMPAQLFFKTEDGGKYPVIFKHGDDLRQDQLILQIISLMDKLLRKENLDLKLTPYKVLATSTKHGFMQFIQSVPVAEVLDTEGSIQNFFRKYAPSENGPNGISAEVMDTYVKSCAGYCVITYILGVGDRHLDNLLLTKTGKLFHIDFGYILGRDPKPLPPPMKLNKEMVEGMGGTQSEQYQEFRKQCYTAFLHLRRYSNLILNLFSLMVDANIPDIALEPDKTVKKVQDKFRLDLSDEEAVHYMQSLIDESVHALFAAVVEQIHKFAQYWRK
T1 sequence (Q99570 whole entry, chain 2 of 4): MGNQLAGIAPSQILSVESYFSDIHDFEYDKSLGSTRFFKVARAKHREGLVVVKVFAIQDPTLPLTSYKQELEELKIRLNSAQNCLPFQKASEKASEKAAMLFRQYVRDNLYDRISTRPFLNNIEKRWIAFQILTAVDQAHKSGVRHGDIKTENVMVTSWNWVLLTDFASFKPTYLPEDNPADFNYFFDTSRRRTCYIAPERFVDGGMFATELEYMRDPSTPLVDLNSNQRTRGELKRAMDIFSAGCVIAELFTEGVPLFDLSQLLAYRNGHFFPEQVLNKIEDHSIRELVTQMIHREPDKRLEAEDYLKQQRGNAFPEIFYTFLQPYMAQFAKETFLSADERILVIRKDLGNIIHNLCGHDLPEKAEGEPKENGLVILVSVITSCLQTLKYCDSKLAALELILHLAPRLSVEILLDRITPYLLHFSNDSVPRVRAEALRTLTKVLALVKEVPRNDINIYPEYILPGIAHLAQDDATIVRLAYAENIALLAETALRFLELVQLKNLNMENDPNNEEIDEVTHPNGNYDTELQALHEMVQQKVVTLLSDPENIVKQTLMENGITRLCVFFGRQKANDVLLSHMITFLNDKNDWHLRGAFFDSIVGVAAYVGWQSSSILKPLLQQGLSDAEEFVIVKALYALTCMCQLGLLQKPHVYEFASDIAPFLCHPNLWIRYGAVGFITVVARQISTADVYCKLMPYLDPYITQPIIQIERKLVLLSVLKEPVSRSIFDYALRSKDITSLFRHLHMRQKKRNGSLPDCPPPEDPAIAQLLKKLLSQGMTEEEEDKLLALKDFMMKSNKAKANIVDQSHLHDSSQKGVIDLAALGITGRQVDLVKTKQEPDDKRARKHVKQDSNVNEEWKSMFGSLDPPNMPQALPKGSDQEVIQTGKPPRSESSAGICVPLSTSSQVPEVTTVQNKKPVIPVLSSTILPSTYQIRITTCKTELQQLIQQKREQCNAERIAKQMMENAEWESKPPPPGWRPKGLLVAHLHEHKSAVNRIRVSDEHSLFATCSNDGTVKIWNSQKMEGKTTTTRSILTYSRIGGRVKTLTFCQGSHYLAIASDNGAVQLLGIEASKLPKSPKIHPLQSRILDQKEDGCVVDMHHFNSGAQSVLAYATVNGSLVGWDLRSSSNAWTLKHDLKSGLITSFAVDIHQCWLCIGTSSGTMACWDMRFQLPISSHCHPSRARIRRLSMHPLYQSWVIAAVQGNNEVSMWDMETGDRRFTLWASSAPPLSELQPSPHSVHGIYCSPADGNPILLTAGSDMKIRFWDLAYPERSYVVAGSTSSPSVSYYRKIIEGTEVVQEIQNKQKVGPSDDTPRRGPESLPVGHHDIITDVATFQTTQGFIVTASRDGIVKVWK
T1 sequence (Q14457 whole entry, chain 3 of 4): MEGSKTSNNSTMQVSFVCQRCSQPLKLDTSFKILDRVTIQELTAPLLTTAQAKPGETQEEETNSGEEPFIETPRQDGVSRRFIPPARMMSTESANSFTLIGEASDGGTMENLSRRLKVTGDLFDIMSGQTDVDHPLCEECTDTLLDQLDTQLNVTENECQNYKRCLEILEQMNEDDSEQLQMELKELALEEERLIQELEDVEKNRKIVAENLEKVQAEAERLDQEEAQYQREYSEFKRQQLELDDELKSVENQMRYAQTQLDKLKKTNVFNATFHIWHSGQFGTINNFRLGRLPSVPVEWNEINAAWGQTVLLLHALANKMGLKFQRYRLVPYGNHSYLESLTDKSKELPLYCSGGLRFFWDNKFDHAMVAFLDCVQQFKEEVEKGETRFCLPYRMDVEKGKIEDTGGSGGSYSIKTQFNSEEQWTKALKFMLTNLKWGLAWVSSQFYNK
T1 sequence (Q6ZNE5 whole entry, chain 4 of 4): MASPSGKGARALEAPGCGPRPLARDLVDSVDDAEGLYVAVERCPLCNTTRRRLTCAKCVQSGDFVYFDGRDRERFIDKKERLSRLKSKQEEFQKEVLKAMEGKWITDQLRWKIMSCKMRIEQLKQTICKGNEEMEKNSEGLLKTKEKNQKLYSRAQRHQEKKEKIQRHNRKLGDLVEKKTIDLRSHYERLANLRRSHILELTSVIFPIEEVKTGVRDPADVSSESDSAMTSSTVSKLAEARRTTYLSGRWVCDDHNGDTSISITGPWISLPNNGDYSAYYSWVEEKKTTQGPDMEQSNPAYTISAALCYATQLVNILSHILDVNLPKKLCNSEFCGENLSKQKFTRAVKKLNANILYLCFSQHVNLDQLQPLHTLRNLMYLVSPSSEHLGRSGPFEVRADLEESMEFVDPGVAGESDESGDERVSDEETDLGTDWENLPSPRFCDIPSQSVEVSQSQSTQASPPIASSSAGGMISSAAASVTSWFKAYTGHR
In words: vesicle flotation assay; GTP-loaded Rab coupled by its C-terminal Cys to PE-MCC in 100 nm LUVs; 1.8 mM LUVs and 2 μM VPS34 complex, 25 mM HEPES pH 8.0, 150 mM NaCl, 1 mM TCEP, 30 min on ice; sucrose gradient, fractions on SDS-PAGE.

Test [2] deals with T2, VPS15 (subunit of complex II–BATS in the cryo-ET structure) (human, UniProt Q99570 1-1358).
T2 construct: VPS15, human; source: Expi293F, transfected, purified within complex II–BATS
T2 sequence (Q99570 whole entry, one chain of several): as the sequence (Q99570 whole entry, chain 2 of 4) above
Kind of test: cryo-EM structure; cryo-ET and subtomogram averaging, 9.8 Å; 16 μM complex II–BATS on LUVs decorated with Rab5a–GTP.

In test [3] the target is T3, VPS34 (subunit of complex II–BATS in the cryo-ET structure) (human, UniProt Q8NEB9 1-887).
T3 construct: VPS34, human; source: Expi293F, transfected, purified within complex II–BATS
T3 sequence (Q8NEB9 whole entry, one chain of several): as the sequence (Q8NEB9 whole entry, chain 1 of 4) above
The description is as above.

Test [4] addresses T4, human VPS34 complex II (VPS34/VPS15/Beclin 1/UVRAG) (human, UniProt Q8NEB9 1-887; Q99570 1-1358; Q14457 1-450; Q9P2Y5 1-699).
T4 construct: VPS34, human, subunit of complex II; VPS15, human, subunit of complex II; Beclin 1, human, subunit of complex II; UVRAG, human, subunit of complex II; Heterotetramer; Purified on IgG beads and released with TEV protease; also called endocytic complex II; source: Expi293F, transfected, purified (IgG beads, TEV protease elution, S200 gel filtration); copies: + + +
In words: vesicle flotation assay; GTP-loaded Rab coupled by its C-terminal Cys to PE-MCC in 100 nm LUVs; 1.8 mM LUVs and 2 μM VPS34 complex, 25 mM HEPES pH 8.0, 150 mM NaCl, 1 mM TCEP, 30 min on ice; sucrose gradient, fractions on SDS-PAGE.

Test [5] has as its target T4, human VPS34 complex II …. Kind of test: cross-linking; proximity-triggered cross-linking by the unnatural amino acid BrCO6K at Rab5a residue 84; 50–100 molar excess of Rab5a over complex II, 100–200 molar excess over VPS34; overnight at 4 °C; SDS-PAGE and mass spectrometry of the bands.
The next test addresses T5, human VPS34 alone (human, UniProt Q8NEB9 1-887).
T5 construct: VPS34, human; printed mass 102 kDa; source: E. coli C41 (DE3), purified (Ni-NTA, heparin, gel filtration)
The test is described as above.

Test [6] concerns the target T4, human VPS34 complex II …. In words: HDX-MS; complex II (5 μM) alone or with 30 μM Rab5a-Q79L-GTP; 25 mM HEPES pH 8.0, 50 mM NaCl, 1 mM TCEP, room temperature; 3/30/300/3000 s.

T4 sequence (Q8NEB9 whole entry, chain 1 of 4): as above
T4 sequence (Q99570 whole entry, chain 2 of 4): as the sequence (Q99570 whole entry, chain 2 of 4) above
T4 sequence (Q14457 whole entry, chain 3 of 4): as the sequence (Q14457 whole entry, chain 3 of 4) above
T4 sequence (Q9P2Y5 whole entry, chain 4 of 4): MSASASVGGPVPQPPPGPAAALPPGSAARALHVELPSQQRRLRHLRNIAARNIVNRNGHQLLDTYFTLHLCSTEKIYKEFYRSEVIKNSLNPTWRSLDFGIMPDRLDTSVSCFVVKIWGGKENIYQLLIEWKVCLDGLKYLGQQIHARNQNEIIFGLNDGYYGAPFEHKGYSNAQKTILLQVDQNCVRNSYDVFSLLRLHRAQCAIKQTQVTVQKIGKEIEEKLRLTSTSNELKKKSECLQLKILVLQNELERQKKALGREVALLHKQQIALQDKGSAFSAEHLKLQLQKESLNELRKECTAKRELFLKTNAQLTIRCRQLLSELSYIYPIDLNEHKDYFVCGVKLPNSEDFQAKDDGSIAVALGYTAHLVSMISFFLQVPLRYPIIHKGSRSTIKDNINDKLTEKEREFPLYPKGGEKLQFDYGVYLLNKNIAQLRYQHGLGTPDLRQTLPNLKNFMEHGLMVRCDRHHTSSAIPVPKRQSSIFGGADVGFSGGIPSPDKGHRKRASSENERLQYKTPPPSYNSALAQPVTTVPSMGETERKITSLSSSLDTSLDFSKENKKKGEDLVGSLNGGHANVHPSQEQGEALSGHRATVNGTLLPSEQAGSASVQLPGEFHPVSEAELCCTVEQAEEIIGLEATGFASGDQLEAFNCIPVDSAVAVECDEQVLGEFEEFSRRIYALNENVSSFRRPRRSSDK
T5 sequence (Q8NEB9 whole entry): as the sequence (Q8NEB9 whole entry, chain 1 of 4) above

B1: Rab1a(1–204)-Q70L-C26S-C126S (natural protein)
chain: not shown
modifications: C-terminal cysteine coupled covalently to a maleimide-conjugated lipid (PE-MCC) in the membrane
notes: Loaded with GTP or GDP before coupling to GUVs or LUVs; also called Rab1a–GTP; Rab1a–GDP; source: E. coli C41(DE3)RIPL, purified (Glutathione Sepharose, TEV protease, HiTrap Q, heparin, size-exclusion chromatography); not shown: GST, N-terminal, cleaved
As for B1, the binding result in test [1] is reported as “binds”.

B2: Rab5a(1–212)-Q79L-C19S-C63S (natural protein, human, UniProt P20339 1-212, looked up)
chain: MASRGATRPNGPNTGNKISQFKLVLLGESAVGKSSLVLRFVKGQFHEFQESTIGAAFLTQTVSLDDTTVKFEIWDTAGLERYHSLAPMYYRGAQAAIVVYDITNEESFARAKNWVKELQRQASPNIVIALSGNKADLANKRAVDFQEAQSYADDNSLLFMETSAKTSMNVNEIFMAIAKKLPKNEPQNPGANSARGRGVDLTEPTQPTRNQC
modifications: C-terminal cysteine coupled covalently to a maleimide-conjugated lipid (PE-MCC) in the membrane
notes: Rab5a, human, residues 1–212; Loaded with GTP or GDP before coupling to GUVs or LUVs; also called Rab5a (Q79L); membrane-anchored Rab5a–GTP; source: E. coli C41(DE3)RIPL, purified (Ni-NTA, SUMO protease, size-exclusion chromatography); not shown: His-SUMO, N-terminal, cleaved
In the case of B2, the binding result in test [2], in test [3], in test [4] and in test [1] was “binds” throughout.

B3: Rab5a S84BrCO6K (Rab5a_Q79L_1-212_C19S_C63S_S84TAG-His6) (natural protein, human, UniProt P20339 1-212, looked up)
chain: B2 chain with S84K
modifications: BrCO6K (bromoalkyl-bearing lysine derivative, unnatural amino acid) at 84
notes: Rab5a, human, residues 1-212, amber codon at S84 read as BrCO6K; Loaded with GTP; Residue 84 is the lysine derivative BrCO6K, written as K; also called Rab5a–GTP–BrCO6K; Rab5a-84BrCO6K; source: E. coli DH10B, purified (Ni-NTA, size-exclusion chromatography)
Consider B3, for which the binding result (in test [5]; with human VPS34 alone) was “binds” throughout.

B4: Rab5a(1-211)-Q79L (natural protein, human, UniProt P20339 1-211, looked up)
chain: MASRGATRPNGPNTGNKICQFKLVLLGESAVGKSSLVLRFVKGQFHEFQESTIGAAFLTQTVCLDDTTVKFEIWDTAGLERYHSLAPMYYRGAQAAIVVYDITNEESFARAKNWVKELQRQASPNIVIALSGNKADLANKRAVDFQEAQSYADDNSLLFMETSAKTSMNVNEIFMAIAKKLPKNEPQNPGANSARGRGVDLTEPTQPTRNQ
notes: Rab5a, human, last 4 residues (CCSN) deleted, residues 1-211; Loaded with GTP; used soluble for HDX-MS; also called Rab5a-Q79L-GTP; Rab5a (Q79L) loaded with GTP; source: E. coli C41(DE3)RIPL, purified (as Rab5a(1–212)); not shown: His-SUMO, N-terminal, cleaved
Consider B4, for which the binding result in test [6] is “binds”.

Source of the values: PMC7946940 (Nature Communications, 2021).
